Assay results from doi:10.1101/2023.06.19.545549.

Biological target: N2β1α1C1, purified recombinant (the MxDnaK1 chimera with the MxDnaK2 NBD) (Myxococcus xanthus DK1622)
Experiment: SDS-PAGE of the purified protein

“N2β1α1C1, purified recombinant (the MxDnaK1 chimera with the MxDnaK2 NBD)” was tested, and the stoichiometry N was 2.
